Reduction of the amount of sMICB in the sample and Kd data for 3 molecules are collected here from patent US20190248901A1 (NOVELOGICS BIOTECHNOLOGY, published 2019).

In assay [1] the target is soluble MICB (sMICB) shed from prostate cancer DU-145 cells (human) (UniProt Q29980). The assay is described as follows: subtractive immunoprecipitation from DU-145 conditioned medium with antibody on Protein G beads, remaining sMICB by MICB ELISA, against isotype controls. For orientation: In an ELISA, binding on a coated surface is turned into a signal by an enzyme label.

Assay [2] concerns the target recombinant extracellular alpha-3 domain of MICA (allele 001), His-tagged, Baculovirus/Sf9 expressed (human) (UniProt Q29983). Briefly: Bio-Layer Interferometry (Octet RED96), antibody captured by anti-mouse IgG, antigen in solution, pH 7.4, 1:1 model. (In general: In BLI a coated tip is dipped into the sample, and binding shifts an interference pattern.)
For assay [3], the target named is T1, recombinant extracellular alpha-3 domain of MICA (allele 001), His-tagged, Baculovirus/Sf9 expressed (human, UniProt Q29983 205-297).
T1 construct: also called MICA alpha-3 recombinant antigen; alpha-3 domain MICA immunogen
T1 sequence: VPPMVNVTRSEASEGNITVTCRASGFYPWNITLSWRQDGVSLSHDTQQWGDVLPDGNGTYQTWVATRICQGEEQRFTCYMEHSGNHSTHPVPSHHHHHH
The assay is described as above. The method, then:
Biomolecular interactions between MICA alpha-3 recombinant antigen and test antibody were directly measured by Bio-Layer Interferometry (BLI) using a Pall ForteBio Octet RED96 machine (Pall ForteBio, CA, USA). Real-time kinetic analyses were performed on the test MICA monoclonal antibody 5C9, as well as two control antibodies, one of which could bind the alpha-3 MICA subdomain antigen (positive control) and one of which could not (negative control), as previously determined by ELISA. The Octet RED96 apparatus operates under the principle of Bio-Layer Interferometry, a label-free technique that measures molecular interactions and complex formation. A key component of the technique is the optical biosensor whose tip is immersed in the fluids of the test well and then used to assay interference patterns between waves of light. Here, the ligand (monoclonal antibody) is localized to the surface of the biosensor through capture by previously bound anti-mouse IgG, while the analyte biomolecule (antigen) is kept in solution. Binding responses between ligand and analyte were measured and reported in real-time. Both association and dissociation kinetics were monitored and KD values were calculated. This model assumed a 1:1 interaction of ligand to analyte.

Chain of soluble MICB (sMICB) shed from prostate cancer DU-145 cells (human) (Q29980 23-309): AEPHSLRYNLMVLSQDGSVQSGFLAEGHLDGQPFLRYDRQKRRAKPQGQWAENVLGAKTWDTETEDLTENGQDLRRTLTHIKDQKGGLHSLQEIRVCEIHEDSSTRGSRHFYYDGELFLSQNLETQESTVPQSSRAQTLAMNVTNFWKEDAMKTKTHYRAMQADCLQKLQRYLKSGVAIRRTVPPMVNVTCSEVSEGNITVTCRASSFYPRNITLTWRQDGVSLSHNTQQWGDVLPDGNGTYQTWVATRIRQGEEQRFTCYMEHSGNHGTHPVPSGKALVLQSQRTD

A word on the Kd: it is the equilibrium constant for the complex coming apart. For the molecule “BAMO3, MIC alpha-3 specific murine IgG2a monoclonal antibody (MBL International)”, in assay [1], the reduction of the amount of sMICB in the sample was 83%. The Kd in assay [2] was determined as 6 nM.

On to “negative control antibody of the Bio-Layer Interferometry analysis”, for which the equilibrium dissociation constant (Kd) in assay [2] stood at 9600 nM.

B1: monoclonal antibody 5C9 (antibody, V domains shown)
VH: QVQLQQSGAELVRPGTSVKVSCKASGYAFTNYLIEWVKQRPGQGLEWIGLIYPGSGGTNYNEKFKGKATLTADKSSSTAYMQLSSLTSDDSAVYFCARIYYGNRDYGMDYWGQGTSVTVSS
VL: MTQTPLSLPVSLGDQASISCRSSQSIVHSNGNTYLEWYLQKPGQSPKLLIYKVSNRFSGVPDRFSGSGSGTDFTLKISRVEAEDLGVYYCFQGSHVPFTFGSGTKLEIK
notes: Mouse hybridoma antibody; Used as hybridoma supernatant in the screening and immunoprecipitation assays; also called mAb 5C9; antibody from hybridoma clone 5C9
For B1, the Kd in assay [3] was approximately 3.3 nM.
